Article PMC9352680, “A comprehensive thermodynamic model for RNA binding by the Saccharomyces cerevisiae Pumilio protein PUF4”

T1: PUF4 RNA-binding domain (Saccharomyces cerevisiae, UniProt P25339 537-888)
T1 sequence: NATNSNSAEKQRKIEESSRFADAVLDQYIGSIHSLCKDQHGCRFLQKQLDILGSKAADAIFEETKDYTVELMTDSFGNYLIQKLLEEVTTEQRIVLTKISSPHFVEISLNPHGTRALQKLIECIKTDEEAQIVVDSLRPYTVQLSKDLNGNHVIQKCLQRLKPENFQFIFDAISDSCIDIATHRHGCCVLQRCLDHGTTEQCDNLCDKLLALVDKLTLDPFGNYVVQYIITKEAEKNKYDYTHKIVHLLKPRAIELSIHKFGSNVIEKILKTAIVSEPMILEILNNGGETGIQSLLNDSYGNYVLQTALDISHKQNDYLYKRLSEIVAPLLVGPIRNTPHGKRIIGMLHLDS


target: T1, PUF4 RNA-binding domain; test: Mg; RNA-MaP; 20 mM Na-HEPES pH 7.4, 30 mM KOAc, 0.75 mM MgCl2, 0.1% Tween-20, 5% glycerol, 0.1 mg/mL BSA, 2 mM DTT; 25 C; 0.0125-409.6 nM protein; details: tags: N-His6-TEV cleaved; C-SNAP kept, Cy3B-labelled; label: tethered on chip by stalled RNA polymerase

Row | Binder | Kd [nM]
1 | UCUCUUUGUAACGACUUCUCUU (ssRNA) [Ic_S1_P5E.1_K5.1_C5.1_H5.1_A5.1_[T5A]_[T6C]_[A7G]_F5.1_[T8A]_[T9C]_[A10T]_T5.1] | > 2300
2 | UCUCUUUGUAGCACUAUCUCUU (ssRNA) [Ic_S1_P5E.1_K5.1_C5.1_H5.1_A5.1_[T5G]_[T6C]_F5.1_[T8C]_T5.1] | 45.5
3 | UCUCUUUGUAGCAUAGUCUCUU (ssRNA) [Ic_S1_P5E.1_K5.1_C5.1_H5.1_A5.1_[T5G]_[T6C]_F5.1_[T9A]_[A10G]_T5.1] | 9.57
4 | UCUCUUUGUACCUUGGUCUCUU (ssRNA) [Ic_S1_P5E.1_K5.1_C5.1_H5.1_A5.1_[T5C]_[T6C]_[A7T]_F5.1_[T9G]_[A10G]_T5.1] | 103
5 | UCUCUUUGUAACUCGGUCUCUU (ssRNA) [Ic_S1_P5E.1_K5.1_C5.1_H5.1_A5.1_[T5A]_[T6C]_[A7T]_F5.1_[T8C]_[T9G]_[A10G]_T5.1] | > 2300
6 | UCUCUUUGUAACCUCGUCUCUU (ssRNA) [Ic_S1_P5E.1_K5.1_C5.1_H5.1_A5.1_[T5A]_[T6C]_[A7C]_F5.1_[T9C]_[A10G]_T5.1] | 123
7 | UCUCUUUGUAGUCUAAUCUCUU (ssRNA) [Ic_S1_P5E.1_K5.1_C5.1_H5.1_A5.1_[T5G]_[A7C]_F5.1_[T9A]_T5.1] | 36
8 | UCUCUUUGUAACCCAAUCUCUU (ssRNA) [Ic_S1_P5E.1_K5.1_C5.1_H5.1_A5.1_[T5A]_[T6C]_[A7C]_F5.1_[T8C]_[T9A]_T5.1] | 1740
9 | UCUCUUUGUAUGACCAUCUCUU (ssRNA) [Ic_S1_P5E.1_K5.1_C5.1_H5.1_A5.1_[T6G]_F5.1_[T8C]_[T9C]_T5.1] | 1110
10 | UCUCUUUGUAAUCUCUUCUCUU (ssRNA) [Ic_S1_P5E.1_K5.1_C5.1_H5.1_A5.1_[T5A]_[A7C]_F5.1_[T9C]_[A10T]_T5.1] | 440
11 | UCUCUUUGUACACUCCUCUCUU (ssRNA) [Ic_S1_P5E.1_K5.1_C5.1_H5.1_A5.1_[T5C]_[T6A]_[A7C]_F5.1_[T9C]_[A10C]_T5.1] | 7.65
12 | UCUCUUUGUAUGGUUUUCUCUU (ssRNA) [Ic_S1_P5E.1_K5.1_C5.1_H5.1_A5.1_[T6G]_[A7G]_F5.1_[A10T]_T5.1] | 159
13 | UCUCUUUGUAAUCUGAUCUCUU (ssRNA) [Ic_S1_P5E.1_K5.1_C5.1_H5.1_A5.1_[T5A]_[A7C]_F5.1_[T9G]_T5.1] | 83.4
14 | UCUCUUUGUAAGUAACUCUCUU (ssRNA) [Ic_S1_P5E.1_K5.1_C5.1_H5.1_A5.1_[T5A]_[T6G]_[A7T]_F5.1_[T8A]_[T9A]_[A10C]_T5.1] | > 2300
15 | UCUCUUUGUACCGGCCUCUCUU (ssRNA) [Ic_S1_P5E.1_K5.1_C5.1_H5.1_A5.1_[T5C]_[T6C]_[A7G]_F5.1_[T8G]_[T9C]_[A10C]_T5.1] | > 2300
16 | UCUCUUUGUAAACUUUUCUCUU (ssRNA) [Ic_S1_P5E.1_K5.1_C5.1_H5.1_A5.1_[T5A]_[T6A]_[A7C]_F5.1_[A10T]_T5.1] | 37.5
17 | UCUCUUUCGAUAUAUCUCUU (ssRNA) [Ib_S1_P3E.1_K3.1_C3.1_H3.1_[G2C]_[T3G]_A3.1_F3.1_T3.1] | > 2300
18 | UCUCUUUGUACGGUCGUCUCUU (ssRNA) [Ic_S1_P5E.1_K5.1_C5.1_H5.1_A5.1_[T5C]_[T6G]_[A7G]_F5.1_[T9C]_[A10G]_T5.1] | > 2300
19 | UCUCUUUGUACGCCCCUCUCUU (ssRNA) [Ic_S1_P5E.1_K5.1_C5.1_H5.1_A5.1_[T5C]_[T6G]_[A7C]_F5.1_[T8C]_[T9C]_[A10C]_T5.1] | 662
20 | UCUCUUUGUAAACUGUUCUCUU (ssRNA) [Ic_S1_P5E.1_K5.1_C5.1_H5.1_A5.1_[T5A]_[T6A]_[A7C]_F5.1_[T9G]_[A10T]_T5.1] | 12.6
21 | UCUCUUUGUAUGCAUAUCUCUU (ssRNA) [Ic_S1_P5E.1_K5.1_C5.1_H5.1_A5.1_[T6G]_[A7C]_F5.1_[T8A]_T5.1] | 36
22 | UCUCUUUGUAAAACGGUCUCUU (ssRNA) [Ic_S1_P5E.1_K5.1_C5.1_H5.1_A5.1_[T5A]_[T6A]_F5.1_[T8C]_[T9G]_[A10G]_T5.1] | 625
23 | UCUCUUUGUACCCGAUUCUCUU (ssRNA) [Ic_S1_P5E.1_K5.1_C5.1_H5.1_A5.1_[T5C]_[T6C]_[A7C]_F5.1_[T8G]_[T9A]_[A10T]_T5.1] | 1050
24 | UCUCUUUGUACCAGUGUCUCUU (ssRNA) [Ic_S1_P5E.1_K5.1_C5.1_H5.1_A5.1_[T5C]_[T6C]_F5.1_[T8G]_[A10G]_T5.1] | 470
25 | UCUCUUUGUACCAAACUCUCUU (ssRNA) [Ic_S1_P5E.1_K5.1_C5.1_H5.1_A5.1_[T5C]_[T6C]_F5.1_[T8A]_[T9A]_[A10C]_T5.1] | 68.1

Row | Binder | Kd [nM]
26 | UCUCUUUGUAAUAAUUUCUCUU (ssRNA) [Ic_S1_P5E.1_K5.1_C5.1_H5.1_A5.1_[T5A]_F5.1_[T8A]_[A10T]_T5.1] | 324
27 | UCUCUUUGUAUUCGGUUCUCUU (ssRNA) [Ic_S1_P5E.1_K5.1_C5.1_H5.1_A5.1_[A7C]_F5.1_[T8G]_[T9G]_[A10T]_T5.1] | 578
28 | UCUCUUUGUACCAUUUUCUCUU (ssRNA) [Ic_S1_P5E.1_K5.1_C5.1_H5.1_A5.1_[T5C]_[T6C]_F5.1_[A10T]_T5.1] | 7.08
29 | UCUCUUUGUAAACUAUUCUCUU (ssRNA) [Ic_S1_P5E.1_K5.1_C5.1_H5.1_A5.1_[T5A]_[T6A]_[A7C]_F5.1_[T9A]_[A10T]_T5.1] | 2.36
30 | UCUCUUCGUGUAUAUCUCUU (ssRNA) [Ib_S1_P3E.1_K3.1_C3.1_H3.1_[T1C]_[A4G]_A3.1_F3.1_T3.1] | 26.7
31 | UCUCUUUGUACCAUCUUCUCUU (ssRNA) [Ic_S1_P5E.1_K5.1_C5.1_H5.1_A5.1_[T5C]_[T6C]_F5.1_[T9C]_[A10T]_T5.1] | 28
32 | UCUCUUUGUAUAGCCUUCUCUU (ssRNA) [Ic_S1_P5E.1_K5.1_C5.1_H5.1_A5.1_[T6A]_[A7G]_F5.1_[T8C]_[T9C]_[A10T]_T5.1] | 114
33 | UCUCUUUGUACCAGUCUCUCUU (ssRNA) [Ic_S1_P5E.1_K5.1_C5.1_H5.1_A5.1_[T5C]_[T6C]_F5.1_[T8G]_[A10C]_T5.1] | 363
34 | UCUCUUUGUAUGUGGUUCUCUU (ssRNA) [Ic_S1_P5E.1_K5.1_C5.1_H5.1_A5.1_[T6G]_[A7T]_F5.1_[T8G]_[T9G]_[A10T]_T5.1] | 421
35 | UCUCUUUGUACUUCGUUCUCUU (ssRNA) [Ic_S1_P5E.1_K5.1_C5.1_H5.1_A5.1_[T5C]_[A7T]_F5.1_[T8C]_[T9G]_[A10T]_T5.1] | 352
36 | UCUCUUUGUAUUUGCUUCUCUU (ssRNA) [Ic_S1_P5E.1_K5.1_C5.1_H5.1_A5.1_[A7T]_F5.1_[T8G]_[T9C]_[A10T]_T5.1] | 324
37 | UCUCUUUGUAAAUUGUUCUCUU (ssRNA) [Ic_S1_P5E.1_K5.1_C5.1_H5.1_A5.1_[T5A]_[T6A]_[A7T]_F5.1_[T9G]_[A10T]_T5.1] | 11.5
38 | UCUCUUUGUAUUUGCCUCUCUU (ssRNA) [Ic_S1_P5E.1_K5.1_C5.1_H5.1_A5.1_[A7T]_F5.1_[T8G]_[T9C]_[A10C]_T5.1] | 568
39 | UCUCUUAGUGUAUAUCUCUU (ssRNA) [Ib_S1_P3E.1_K3.1_C3.1_H3.1_[T1A]_[A4G]_A3.1_F3.1_T3.1] | 51.9
40 | UCUCUUUGUAUUUAAUUCUCUU (ssRNA) [Ic_S1_P5E.1_K5.1_C5.1_H5.1_A5.1_[A7T]_F5.1_[T8A]_[T9A]_[A10T]_T5.1] | 46.2
41 | UCUCUUUCCAUAUAUCUCUU (ssRNA) [Ib_S1_P3E.1_K3.1_C3.1_H3.1_[G2C]_[T3C]_A3.1_F3.1_T3.1] | > 2300
42 | UCUCUUUGUAAAUAACUCUCUU (ssRNA) [Ic_S1_P5E.1_K5.1_C5.1_H5.1_A5.1_[T5A]_[T6A]_[A7T]_F5.1_[T8A]_[T9A]_[A10C]_T5.1] | 31.1
43 | UCUCUUUGUAAAAUUGUCUCUU (ssRNA) [Ic_S1_P5E.1_K5.1_C5.1_H5.1_A5.1_[T5A]_[T6A]_F5.1_[A10G]_T5.1] | 22.4
44 | UCUCUUUGUAAAUUUUUCUCUU (ssRNA) [Ic_S1_P5E.1_K5.1_C5.1_H5.1_A5.1_[T5A]_[T6A]_[A7T]_F5.1_[A10T]_T5.1] | 22.4
45 | UCUCUUUGUAUACCCUUCUCUU (ssRNA) [Ic_S1_P5E.1_K5.1_C5.1_H5.1_A5.1_[T6A]_[A7C]_F5.1_[T8C]_[T9C]_[A10T]_T5.1] | 103
46 | UCUCUUUGUAUACUAGUCUCUU (ssRNA) [Ic_S1_P5E.1_K5.1_C5.1_H5.1_A5.1_[T6A]_[A7C]_F5.1_[T9A]_[A10G]_T5.1] | 0.331
47 | UCUCUUUGUACGCGUCUCUCUU (ssRNA) [Ic_S1_P5E.1_K5.1_C5.1_H5.1_A5.1_[T5C]_[T6G]_[A7C]_F5.1_[T8G]_[A10C]_T5.1] | 1980
48 | UCUCUUUGUAAUGGUAUCUCUU (ssRNA) [Ic_S1_P5E.1_K5.1_C5.1_H5.1_A5.1_[T5A]_[A7G]_F5.1_[T8G]_T5.1] | 45.1
49 | UCUCUUUGUACAAUAAUCUCUU (ssRNA) [Ic_S1_P5E.1_K5.1_C5.1_H5.1_A5.1_[T5C]_[T6A]_F5.1_[T9A]_T5.1] | 1.94
50 | UCUCUUUGUAUGUACUUCUCUU (ssRNA) [Ic_S1_P5E.1_K5.1_C5.1_H5.1_A5.1_[T6G]_[A7T]_F5.1_[T8A]_[T9C]_[A10T]_T5.1] | 64.7
